Measured values: the supplement of paper PMC9876800

Test system: peptide library, one residue held at a place counted from the S/T acceptor
Experiment: relative phosphorylation of the sub-library (ratio to the mean residue at this position); higher = residue favoured
Details: human
Summary of the method: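 Purified recombinant kinases were reacted in 384-well plates with biotinylated degenerate peptide sub-libraries, each having one residue fixed at one position around a central Ser/Thr. The reaction mix contained 50 μM peptide plus 50 μM ATP spiked with γ-32P-ATP and ran for 90 min under kinase-specific conditions. Relative sub-library phosphorylation, taken from densitometry of phosphorimaged streptavidin membrane spots, is a ratio to the mean residue at that position.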

Chain of PHKG1, construct: Full length (Q16816 whole entry, looked up): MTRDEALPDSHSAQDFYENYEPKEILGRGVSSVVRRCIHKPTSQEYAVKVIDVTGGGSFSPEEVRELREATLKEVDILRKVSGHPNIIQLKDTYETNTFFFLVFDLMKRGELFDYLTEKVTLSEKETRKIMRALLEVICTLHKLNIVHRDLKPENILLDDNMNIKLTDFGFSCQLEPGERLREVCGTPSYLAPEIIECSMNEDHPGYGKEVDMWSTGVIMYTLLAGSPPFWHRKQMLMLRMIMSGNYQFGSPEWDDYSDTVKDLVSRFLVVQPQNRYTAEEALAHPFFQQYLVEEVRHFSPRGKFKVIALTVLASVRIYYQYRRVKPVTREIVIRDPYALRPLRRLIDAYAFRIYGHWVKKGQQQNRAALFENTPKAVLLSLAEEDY
Chain of AKT1, construct: aa109-end (P31749 109-480, looked up): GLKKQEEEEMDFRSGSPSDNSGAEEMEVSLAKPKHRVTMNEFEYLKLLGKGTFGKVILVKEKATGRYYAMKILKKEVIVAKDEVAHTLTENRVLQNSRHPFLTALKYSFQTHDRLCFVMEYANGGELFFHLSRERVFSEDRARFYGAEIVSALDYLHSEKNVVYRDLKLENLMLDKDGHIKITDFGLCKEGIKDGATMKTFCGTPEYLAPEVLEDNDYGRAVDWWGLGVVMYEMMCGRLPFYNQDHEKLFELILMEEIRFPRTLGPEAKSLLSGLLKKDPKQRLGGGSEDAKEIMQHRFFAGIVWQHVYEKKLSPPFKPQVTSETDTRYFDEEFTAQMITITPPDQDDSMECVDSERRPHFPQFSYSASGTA

PHKG1, construct: Full length (from UniProt Q16816)
relative phosphorylation
Details | at +1 | at +2 | at +3 | at +4 | at -1 | at -2 | at -3 | at -4 | at -5
A fixed | 0.524 | 0.708 | 0.898 | 0.937 | 0.837 | 1.11 | 0.736 | 0.926 | 1
D fixed | 0.175 | 0.2 | 0.276 | 0.343 | 0.512 | 0.624 | 0.356 | 0.439 | 0.436
E fixed | 0.197 | 0.139 | 0.272 | 0.238 | 0.411 | 1.49 | 0.376 | 0.573 | 0.367
F fixed | 3.7 | 1.16 | 1.29 | 1.13 | 1.06 | 0.838 | 0.53 | 0.865 | 1.18
G fixed | 0.491 | 0.721 | 1.06 | 1.02 | 0.741 | 1.13 | 0.824 | 1.15 | 0.937
H fixed | 0.712 | 1.35 | 1.3 | 1.18 | 1.24 | 0.984 | 1.12 | 1.11 | 1.1
I fixed | 1.5 | 0.516 | 0.891 | 0.75 | 0.611 | 0.363 | 0.278 | 0.728 | 0.791
K fixed | 0.777 | 2.04 | 1.37 | 2.01 | 1.44 | 1.12 | 2.55 | 1.56 | 1.46
L fixed | 1.17 | 0.544 | 1.06 | 0.956 | 0.927 | 0.576 | 0.376 | 0.823 | 1.34
M fixed | 1.65 | 0.694 | 0.957 | 0.886 | 1.18 | 0.969 | 0.458 | 0.957 | 0.824
N fixed | 0.513 | 0.739 | 0.786 | 0.866 | 1.32 | 1.28 | 0.721 | 0.764 | 0.664
P fixed | 0.292 | 0.721 | 1.09 | 1.29 | 0.999 | 0.702 | 0.926 | 1.17 | 1.01
Q fixed | 0.779 | 0.703 | 0.782 | 1.01 | 1.14 | 2.05 | 0.936 | 0.927 | 0.779
R fixed | 0.876 | 3.73 | 1.46 | 1.67 | 1.57 | 1.55 | 4.81 | 1.63 | 1.58
V fixed | 1.22 | 0.501 | 0.721 | 0.752 | 0.711 | 0.508 | 0.311 | 0.721 | 0.832
W fixed | 1.21 | 1.48 | 1.56 | 1.1 | 0.931 | 0.813 | 0.98 | 1.58 | 1.71
Y fixed | 1.22 | 1.06 | 1.24 | 0.862 | 1.38 | 0.875 | 0.71 | 1.08 | 0.99
pThr fixed | 0.419 | 0.25 | 0.393 | 0.356 | 0.535 | 0.529 | 0.621 | 0.846 | 0.68
pTyr fixed | 0.329 | 0.171 | 0.348 | 0.254 | 0.675 | 0.4 | 0.469 | 0.721 | 0.599

AKT1, construct: aa109-end (from UniProt P31749)
relative phosphorylation
Details | at +1 | at +2 | at +3 | at +4 | at -1 | at -2 | at -3 | at -4 | at -5
A fixed | 0.492 | 0.908 | 0.834 | 0.83 | 0.739 | 0.942 | 0.543 | 0.894 | 0.938
D fixed | 0.294 | 0.547 | 0.499 | 0.752 | 0.726 | 0.143 | 0.165 | 0.567 | 0.639
E fixed | 0.292 | 0.394 | 0.537 | 0.53 | 0.387 | 0.132 | 0.164 | 0.703 | 0.639
F fixed | 2.31 | 0.76 | 1.03 | 0.662 | 0.832 | 0.504 | 0.271 | 0.734 | 0.929
G fixed | 0.657 | 1.07 | 1.21 | 1.01 | 1.32 | 0.592 | 0.453 | 1.03 | 1.01
H fixed | 0.791 | 1.56 | 1.3 | 1.13 | 1.18 | 0.839 | 0.837 | 1.02 | 1.11
I fixed | 1.7 | 1.02 | 0.838 | 0.646 | 0.337 | 0.414 | 0.245 | 0.66 | 0.74
K fixed | 0.854 | 1.3 | 1.56 | 1.95 | 1.78 | 2.18 | 2.33 | 1.85 | 1.61
L fixed | 1.22 | 1.13 | 0.826 | 0.786 | 0.978 | 1.02 | 0.295 | 0.75 | 0.789
M fixed | 1.69 | 0.787 | 0.839 | 0.773 | 1.13 | 0.498 | 0.282 | 0.9 | 0.859
N fixed | 0.924 | 1.08 | 1.06 | 1.1 | 1.44 | 0.444 | 0.332 | 0.804 | 0.795
P fixed | 0.36 | 0.733 | 0.833 | 1.57 | 1.04 | 0.303 | 0.507 | 0.91 | 1.03
Q fixed | 1.08 | 0.903 | 0.964 | 1.25 | 1.01 | 0.546 | 0.56 | 0.91 | 0.835
R fixed | 0.952 | 1.95 | 1.94 | 1.84 | 1.75 | 7.28 | 9.07 | 2.75 | 2.58
V fixed | 1.4 | 1.11 | 0.782 | 0.702 | 0.449 | 0.44 | 0.238 | 0.757 | 0.727
W fixed | 1.12 | 0.831 | 0.963 | 0.884 | 0.663 | 0.332 | 0.352 | 0.972 | 0.893
Y fixed | 0.853 | 0.913 | 0.979 | 0.593 | 1.24 | 0.392 | 0.355 | 0.785 | 0.877
pThr fixed | 0.455 | 0.493 | 0.573 | 0.668 | 0.301 | 0.348 | 0.322 | 0.767 | 0.724
pTyr fixed | 0.575 | 0.645 | 0.577 | 0.447 | 0.9 | 0.273 | 0.299 | 0.692 | 0.728
